The results in this text go back to patent US20250034266A1 (ZAI LAB SHANGHAI, published 2025).

The target in assay [1] is T1, human CCR8 (human, UniProt P51685 1-355).
T1 construct: whole, on cells; also called hCCR8
The assay can be described thus: FACS of purified scFv on CHO-K1-human CCR8 cells.
T1 sequence (P51685 whole entry): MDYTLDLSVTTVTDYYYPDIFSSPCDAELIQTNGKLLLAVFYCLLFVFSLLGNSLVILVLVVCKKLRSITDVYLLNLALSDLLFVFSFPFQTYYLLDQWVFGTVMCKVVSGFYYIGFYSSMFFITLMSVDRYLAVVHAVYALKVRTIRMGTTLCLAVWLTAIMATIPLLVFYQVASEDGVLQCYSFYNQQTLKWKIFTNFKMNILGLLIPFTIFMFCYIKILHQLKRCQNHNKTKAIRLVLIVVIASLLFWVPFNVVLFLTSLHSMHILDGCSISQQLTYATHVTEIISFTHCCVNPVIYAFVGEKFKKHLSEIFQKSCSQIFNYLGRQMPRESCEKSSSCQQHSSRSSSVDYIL

In assay [2] the target is T2, human CCR8 (human, UniProt P51685 1-355). Description: cell-based or functional assay.
T2 sequence (P51685 whole entry): as above
For assay [3], the target named is T2, human CCR8. The assay can be described thus: cell-based or functional assay. The source holds these as a separate data set.
The target in assay [4] is T3, cynomolgus CCR8 (cynomolgus, UniProt G7NYJ2 1-355).
T3 construct: whole, on cells
The assay can be described thus: FACS on HEK293-cynomolgus CCR8 cells.

Assay [5] deals with T1, human CCR8. The assay can be described thus: cell-based or functional assay. This is another data set of the same source.
Assay [6] concerns the target T1, human CCR8. Description: FACS on HuT78 cells (endogenous human CCR8). The method, then: HuT78 cells expressing endogenous human CCR8 were used for determining binding affinities of selected affinity matured anti-CCR8 antibodies. Briefly, a total of […] cells for each well were seeded in 96-well plates and washed with FACS buffer (DPBS containing […]) for once. […] Cells were incubated with 50 μL of diluted antibodies at 4° C. for 1 hour. After primary antibody incubation, cells were washed for 3 times by FACS buffer. Then, cells were stained by Alexa Fbu647 labeled anti-human IgG secondary antibody (Jackson ImmunoResearch, #109606170) at 1:600 dilution in FACS buffer for 0.5 hour at 4° C. After 3 times washed, flow cytometry (Sartourius, iQue3) was performed to measure the binding affinities of antibodies. […]

Assay [7] concerns the target T1, human CCR8. The assay can be described thus: FACS on CHO-K1-human CCR8 cells.
For assay [8], the target named is T1, human CCR8. The assay can be described thus: FACS, competition with CCL1 on CHO-K1-human CCR8 cells.
The target of assay [9] is T3, cynomolgus CCR8. The assay can be described thus: FACS on ExpiCHO-S-cynomolgus CCR8 cells.
Assay [10] addresses T1, human CCR8. The assay can be described thus: FACS, competition with AF647-human CCL1 on CHO-K1-human CCR8 cells.
Assay [11] deals with T1, human CCR8. Description: cell-based or functional assay. This is another data set of the same source.
Assay [12] addresses T1, human CCR8. Description: FACS on HEK293-human CCR8 cells.

T3 sequence (G7NYJ2 entry or part of it): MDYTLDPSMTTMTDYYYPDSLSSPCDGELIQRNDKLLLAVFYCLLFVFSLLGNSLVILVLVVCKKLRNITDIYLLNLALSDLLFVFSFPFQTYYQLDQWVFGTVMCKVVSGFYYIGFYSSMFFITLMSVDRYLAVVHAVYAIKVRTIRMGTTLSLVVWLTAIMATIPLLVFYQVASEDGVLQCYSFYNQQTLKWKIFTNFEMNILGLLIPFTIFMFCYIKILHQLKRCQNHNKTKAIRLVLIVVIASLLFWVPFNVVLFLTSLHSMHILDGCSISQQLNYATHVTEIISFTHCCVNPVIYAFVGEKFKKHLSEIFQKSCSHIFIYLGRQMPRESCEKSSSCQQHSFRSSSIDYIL

B1: 149-9 scFv (WT) (scFv)
scFv: EVQLVESGGGLVQPGGSLKLSCAASGFTFNTYAMNWVRQASGKGLEWVGRIRSKSNFYATAYAASVKGRFTISRDDSKNTAYLQMNSLKTEDTAVYYCTRGRDYGSSYAMDYWGQGTLVTVSSGGGGSGGGGSGGGGSDIVMTQSPLSLPVTPGEPASISCRSSKSLLHSNANTYLYWFLQKPGQSPQLLIYRMSNLASGVPDRFSGSGSGTDFTLKISRVEAEDVGVYYCMQHLEYPLTFGGGTKVELK
notes: VH-VL format with (G4S)3 linker
As for B1, the “GeoMean AF647 (RL1-H) of CHO-K1-human CCR8 / GeoMean AF647 (RL1-H) in H12(NC)” value with human CCR8 [1] was 2.2.

B2: VH-PH5-P5F7 (scFv)
scFv: EVQLVESGGGLVQPGGSLKLSCAASGFTFNTYAMNWVRQASGKGLEWVGRIRSKSNFYATAYAASVKGRFTISRDDSKNTAYLQMNSLKTEDTAVYYCTRGREYGRSYAMDYWGQGTLVTVSSGGGGSGGGGSGGGGSDIVMTQSPLSLPVTPGEPASISCRSSKSLLHSNANTYLYWFLQKPGQSPQLLIYRMSNLASGVPDRFSGSGSGTDFTLKISRVEAEDVGVYYCMQHLEYPLTFGGGTKVELK
On to B2, for which the “GeoMean AF647 (RL1-H) of CHO-K1-human CCR8 / GeoMean AF647 (RL1-H) in H12(NC)” value with human CCR8 [1] was 7.1.

B3: VL-PH5-P3E4 (scFv)
scFv: EVQLVESGGGLVQPGGSLKLSCAASGFTFNTYAMNWVRQASGKGLEWVGRIRSKSNFYATAYAASVKGRFTISRDDSKNTAYLQMNSLKTEDTAVYYCTRGRDYGSSYAMDYWGQGTLVTVSSGGGGSGGGGSGGGGSDIVMTQSPLSLPVTPGEPASISCRSSKSLLHSNANTYLYWFLQKPGQSPQLLIYRMSNLASGVPDRFSGSGSGTDFTLKISRVEAEDVGVYYCMQHLRYPLTFGGGTKVELK
Turning to B3, the “GeoMean AF647 (RL1-H) of CHO-K1-human CCR8 / GeoMean AF647 (RL1-H) in H12(NC)” value in the assay with human CCR8 [1] stood at 2.9.

B4: VH-PH5-P3E3 (scFv)
scFv: EVQLVESGGGLVQPGGSLKLSCAASGFTFNTYAMNWVRQASGKGLEWVGRIRSKSNFYATAYAASVKGRFTISRDDSKNTAYLQMNSLKTEDTAVYYCTRGREYGSAYAMDYWGQGTLVTVSSGGGGSGGGGSGGGGSDIVMTQSPLSLPVTPGEPASISCRSSKSLLHSNANTYLYWFLQKPGQSPQLLIYRMSNLASGVPDRFSGSGSGTDFTLKISRVEAEDVGVYYCMQHLEYPLTFGGGTKVELK
Consider B4, for which, in the assay with human CCR8 [1], the “GeoMean AF647 (RL1-H) of CHO-K1-human CCR8 / GeoMean AF647 (RL1-H) in H12(NC)” value stood at 3.6.

B5: VL-PH5-P5D9 (scFv)
scFv: EVQLVESGGGLVQPGGSLKLSCAASGFTFNTYAMNWVRQASGKGLEWVGRIRSKSNFYATAYAASVKGRFTISRDDSKNTAYLQMNSLKTEDTAVYYCTRGRDYGSSYAMDYWGQGTLVTVSSGGGGSGGGGSGGGGSDIVMTQSPLSLPVTPGEPASISCRSSKSLLHSNANTYLYWFLQKPGQSPQLLIYRMSNLASGVPDRFSGSGSGTDFTLKISRVEAEDVGVYYCMQHLSYPLTFGGGTKVELK
As to B5, the “GeoMean AF647 (RL1-H) of CHO-K1-human CCR8 / GeoMean AF647 (RL1-H) in H12(NC)” value with human CCR8 [1] worked out at 3.2.

B6: VH-PH5-P2B6(LCDR3) (scFv)
scFv: EVQLVESGGGLVQPGGSLKLSCAASGFTFNTYAMNWVRQASGKGLEWVGRIRSKSNFYATAYAASVKGRFTISRDDSKNTAYLQMNSLKTEDTAVYYCTRGRDYGSSYAMDYWGQGTLVTVSSGGGGSGGGGSGGGGSDIVMTQSPLSLPVTPGEPASISCRSSKSLLHSNANTYLYWFLQKPGQSPQLLIYRMSNLASGVPDRFSGSGSGTDFTLKISRVEAEDVGVYYCMQHLKYPLTFGGGTKVELK
B6: the “GeoMean AF647 (RL1-H) of CHO-K1-human CCR8 / GeoMean AF647 (RL1-H) in H12(NC)” value in the assay with human CCR8 [1] worked out at 4.6.

B7: VH-PH5-P9E9 (scFv)
scFv: EVQLVESGGGLVQPGGSLKLSCAASGFTFNTYAMNWVRQASGKGLEWVGRIRSKSNFYATAYAASVKGRFTISRDDSKNTAYLQMNSLKTEDTAVYYCTRGKEYGSSYAMDYWGQGTLVTVSSGGGGSGGGGSGGGGSDIVMTQSPLSLPVTPGEPASISCRSSKSLLHSNANTYLYWFLQKPGQSPQLLIYRMSNLASGVPDRFSGSGSGTDFTLKISRVEAEDVGVYYCMQHLEYPLTFGGGTKVELK
As to B7, the “GeoMean AF647 (RL1-H) of CHO-K1-human CCR8 / GeoMean AF647 (RL1-H) in H12(NC)” value with human CCR8 [1] was 10.8.

B8: VH-PH5-P7B9 (scFv)
scFv: EVQLVESGGGLVQPGGSLKLSCAASGFTFNTYAMNWVRQASGKGLEWVGRIRSKSNFYATAYAASVKGRFTISRDDSKNTAYLQMNSLKTEDTAVYYCTRGREYGSSYAMDYWGQGTLVTVSSGGGGSGGGGSGGGGSDIVMTQSPLSLPVTPGEPASISCRSSKSLLHSNANTYLYWFLQKPGQSPQLLIYRMSNLASGVPDRFSGSGSGTDFTLKISRVEAEDVGVYYCMQHLEYPLTFGGGTKVELK
B8: the “GeoMean AF647 (RL1-H) of CHO-K1-human CCR8 / GeoMean AF647 (RL1-H) in H12(NC)” value with human CCR8 [1] was determined as 10.4.

B9: VH-PH7-P2H12 (scFv)
scFv: EVQLVESGGGLVQPGGSLKLSCAASGFTFNTYAMNWVRQAPGKGLEWVGRIRSKSNFYATAYAASVKGRFTISRDDSKNTAYLQMNSLKTEDTAVYYCTRGRDYGSSYAMDYWGQGTLVTVSSGGGGSGGGGSGGGGSDIVMTQSPLSLPVTPGEPASISCRSSKSLLHSNANTYLYWFLQKPGQSPQLLIYRMSNLASGVPDRFSGSGSGTDFTLKISRVEAEDVGVYYCMQHLEYPLTFGGGTKVELK
notes: also called VH-PH7-P2H12(S41P)
Regarding B9, in the assay with human CCR8 [1], the “GeoMean AF647 (RL1-H) of CHO-K1-human CCR8 / GeoMean AF647 (RL1-H) in H12(NC)” value was 6.

B10: Hu149-12G1 (antibody, human IgG1)
heavy: not shown
VL: DIVMTQSPLSLPVTPGEPASISCRSSKSLLHSNANTYLYWFLQKPGQSPQLLIYRMSNLASGVPDRFSGSGSGTDFTLKISRVEAEDVGVYYCMQHLEYPLTFGGGTKVELK
Consider B10, for which, in the assay with human CCR8 [2], the “EC50, ADCC with human PBMCs, target CHO-K1-human CCR8 cells” value worked out at 0.0113 nM and the “Max specific lysis (%), ADCC with human PBMCs, target CHO-K1-human CCR8 cells” value came out at 36.4%. For the same molecule, in the assay with human CCR8 [3], the “EC50, ADCC reporter, F variant CD16a/NFAT-Jurkat, target CHO-K1-human CCR8 cells” value was 0.0598 nM; the “EC50, ADCC reporter, F variant CD16a/NFAT-Jurkat, target HuT78 cells” value is 0.744 nM; the “EC50, ADCC reporter, V variant CD16a/NFAT-Jurkat, target CHO-K1-human CCR8 cells” value stood at 0.043 nM; the “EC50, ADCC reporter, V variant CD16a/NFAT-Jurkat, target HuT78 cells” value was 0.495 nM. In the assay with human CCR8 [3], the “Max (RLU), ADCC reporter, F variant CD16a/NFAT-Jurkat, target CHO-K1-human CCR8 cells” value amounted to 4.96e+06 RLU; the “Max (RLU), ADCC reporter, F variant CD16a/NFAT-Jurkat, target HuT78 cells” value was 5.28e+06 RLU; the “Max (RLU), ADCC reporter, V variant CD16a/NFAT-Jurkat, target CHO-K1-human CCR8 cells” value was found to be 2.28e+06 RLU; the “Max (RLU), ADCC reporter, V variant CD16a/NFAT-Jurkat, target HuT78 cells” value came to 4.19e+06 RLU.

B11: Hu149-18 (antibody, human IgG1, V domains shown)
VH: EVQLVESGGGLVQPGGSLKLSCAASGFTFNTYAMNWVRQASGKGLEWVGRIRSKSNFYATAYAASVKGRFTISRDDSKNTAYLQMNSLKTEDTAVYYCTRGRDYGSSYAMDYWGQGTLVTVSS
VL: DIVMTQSPLSLPVTPGEPASISCRSSKSLLHSNANTYLYWFLQKPGQSPQLLIYRMSNLASGVPDRFSGSGSGTDFTLKISRVEAEDVGVYYCMQHLRYPLTFGGGTKVELK
notes: human IgG1
Take B11: in the assay with cynomolgus CCR8 [4], a half-maximal effect (EC50) was put at 0.0826 nM and the “Max MFI” value is 4.15e+06 MFI. For the same molecule, in the assay with human CCR8 [5], the “IC50, inhibition of CCL1 induced β-Arrestin recruitment” value was 0.61 nM and the “Max Inhibition (%), CCL1 induced β-Arrestin recruitment” value was determined as 88.8%. The “Max MFI” value with human CCR8 [6] stood at 351000 MFI. Further, in the assay with human CCR8 [7], it took 0.0722 nM to reach a half-maximal effect (EC50) and the “Max MFI” value came out at 694000 MFI. In the assay with human CCR8 [8], the IC50 worked out at 0.0614 nM and the “Max Inhibition (%)” value was 101%.

B12: CM348 (antibody, V domains shown)
VH: QVQLVETGGGLVRPGNSLKLSCVTSGFSFSNYRMHWLRQPPGKRLEWIAVITVKSDNYGANYAESVKGRFTISRDDSKSSVYLQMNRLREEDTATYYCSSLGRVAYWGQGTLVTVSA
VL: DIVMTQSQKFMFTSVGDRVSVTCKASQNVDTNVVWYQQKPGQSPKALIYSASSRYSGVPDRFTGSGSGTDFTLTISNVQSEDLAEYFCQQHNSFPLTFGAGTKLELI
notes: CM348 is not defined in words; also called CM348 HuIgG1; parental antibody CM348
B12: in the assay with cynomolgus CCR8 [9], a half-maximal response (EC50) required 65.3 nM and the “Max MFI” value came out at 238 MFI. Further, in the assay with human CCR8 [10], the half-maximal inhibitory concentration (IC50) came out at 0.17 nM and the “Max Inhibition (%)” value worked out at 96.4%. Also, in the assay with human CCR8 [11], the “EC50, ADCC with human PBMC” value came out at 0.41 nM and the “Max specific lysis (%), ADCC with human PBMC” value came out at 13.1%. In the assay with human CCR8 [12], the half-maximal effective concentration (EC50) was found to be 0.091 nM and the “Max MFI” value came to 5050 MFI.
